One molecule from patent US20220267442A1 can be followed below.

In the assay the target is recombinant human TGF-β1 (human) (UniProt P01137). In words: cell-based or functional assay.
Sequence of recombinant human TGF-β1 (human) (P01137 279-390 limits assumed): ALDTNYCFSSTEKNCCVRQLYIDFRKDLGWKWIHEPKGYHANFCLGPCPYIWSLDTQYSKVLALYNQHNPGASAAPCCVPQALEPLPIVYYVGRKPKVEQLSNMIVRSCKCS

B1: anti-TGF-β (αTGF-β, 1D11 clone) (antibody, from another filing, V domains shown)
VH: QVQLQQSGPELVRPGASVKLSCKASGYIFITYWMNWVKQRPGQGLEWIGQIFPASGSTNYNEMFEGKATLTVDTSSSTAYMQLSSLTSEDSAVYYCARGDGNYALDAMDYWGQGTSVTVSS
VL: DIVLTQSPASLAVSLGQRATISCRASESVDSYGNSFMHWYQQKSGQPPKLLIYLASNLESGVPARFSGSGSRTDFTLTIDPVEADDAATYYCQQNNEDPLTFGAGTKLEIK
Take B1: the 80% maximal inhibition (IC80), TGF-β signaling reporter assay (TGF-β/SMAD luciferase in HEK293 cells, 10 ng/mL recombinant human TGF-β1) stood at 0.025 µM.
